From publication PMC10397247
Each block holds one binder with its values, some of them ahead of it.

Legend:
Assay in all cases: two-hybrid library CCmax;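 also: natural log of median RNA to DNA barcode read ratio; higher means stronger binding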
[1] = molecular target: T1, Core_IIII-es_KKKE; settings: mean of both orientations
T1 chain: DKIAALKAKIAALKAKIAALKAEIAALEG

[2] = molecular target: T2, 4H1615-AA
T2 chain: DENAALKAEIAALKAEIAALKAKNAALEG

[3] = molecular target: T3, 4H1650-AA; settings: mean of both orientations
T3 chain: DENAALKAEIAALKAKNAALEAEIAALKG

[4] = molecular target: T4, 4H175-AA; settings: mean of both orientations
T4 chain: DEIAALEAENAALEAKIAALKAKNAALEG

[5] = molecular target: T5, 4H1765-AA; settings: mean of both orientations
T5 chain: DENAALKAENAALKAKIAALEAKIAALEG

[6] = molecular target: T6, 4H1821-AA; settings: mean of both orientations
T6 chain: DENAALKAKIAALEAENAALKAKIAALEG

[7] = molecular target: T7, 4H1828-AA; settings: mean of both orientations
T7 chain: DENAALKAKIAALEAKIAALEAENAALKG

[8] = molecular target: T8, 4H1930-AA; settings: mean of both orientations
T8 chain: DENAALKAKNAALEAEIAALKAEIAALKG

[9] = molecular target: T9, 4H2124-AA; settings: mean of both orientations
T9 chain: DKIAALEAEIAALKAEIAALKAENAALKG

[10] = molecular target: T10, 4H2165-AA; settings: mean of both orientations
T10 chain: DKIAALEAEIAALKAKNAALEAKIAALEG

[11] = molecular target: T11, 4H2253-AA
T11 chain: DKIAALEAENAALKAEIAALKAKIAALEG

[12] = molecular target: T12, 4H2330-AA; settings: mean of both orientations
T12 chain: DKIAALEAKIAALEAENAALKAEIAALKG

[13] = molecular target: T13, 4H2343-AA; settings: mean of both orientations
T13 chain: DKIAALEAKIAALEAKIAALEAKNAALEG

[14] = molecular target: T14, 4H2466-AA; settings: mean of both orientations
T14 chain: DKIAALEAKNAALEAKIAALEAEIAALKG

[15] = molecular target: T15, 4H249-AA; settings: mean of both orientations
T15 chain: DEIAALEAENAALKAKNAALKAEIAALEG

[16] = molecular target: T16, 4H2592-AA; settings: mean of both orientations
T16 chain: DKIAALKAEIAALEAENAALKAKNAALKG

[17] = molecular target: T17, 4H2732-AA; settings: mean of both orientations
T17 chain: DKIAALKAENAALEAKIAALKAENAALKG

[18] = molecular target: T18, 4H2774-AA; settings: mean of both orientations
T18 chain: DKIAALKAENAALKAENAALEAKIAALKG

[19] = molecular target: T19, 4H2931-AA; settings: mean of both orientations
T19 chain: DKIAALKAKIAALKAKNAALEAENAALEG

[20] = molecular target: T20, 4H3001-AA; settings: mean of both orientations
T20 chain: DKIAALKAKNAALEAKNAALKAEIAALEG

[21] = molecular target: T21, 4H3015-AA; settings: mean of both orientations
T21 chain: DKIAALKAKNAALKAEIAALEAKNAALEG

[22] = molecular target: T22, 4H3073-AA; settings: mean of both orientations
T22 chain: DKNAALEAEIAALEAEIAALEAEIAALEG

[23] = molecular target: T23, 4H3438-AA; settings: mean of both orientations
T23 chain: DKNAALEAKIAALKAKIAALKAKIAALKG

[24] = molecular target: T24, 4H347-AA; settings: mean of both orientations
T24 chain: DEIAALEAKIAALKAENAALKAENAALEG

[25] = molecular target: T25, 4H406-AA; settings: mean of both orientations
T25 chain: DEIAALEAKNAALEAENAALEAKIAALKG

[26] = molecular target: T26, 4H452-AA; settings: mean of both orientations
T26 chain: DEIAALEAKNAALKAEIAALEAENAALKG

[27] = molecular target: T27, 4H56-AA; settings: mean of both orientations
T27 chain: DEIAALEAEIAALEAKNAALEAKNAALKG

[28] = molecular target: T28, 4H_APH; settings: mean of both orientations
T28 chain: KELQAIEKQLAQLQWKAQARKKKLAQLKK

[29] = molecular target: T29, 4H_BCR; settings: mean of both orientations
T29 chain: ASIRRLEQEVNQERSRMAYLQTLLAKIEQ

[30] = molecular target: 4H_GCN4
[31] = molecular target: GCN2_T; settings: mean of both orientations
[32] = molecular target: T30, Core_IIIN-es_KKKE; settings: mean of both orientations
T30 chain: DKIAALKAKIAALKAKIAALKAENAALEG

4H_GCN4, sequence (chain, as listed by the source): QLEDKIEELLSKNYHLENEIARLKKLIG

interaction score [1]: 2.4
Binder: DEIAALEAEIAALEAEIAALEAKIAALKG [Core_IIII-es_EEEK]

interaction score [2]: 1.78 | interaction score [3]: -1.46 | interaction score [4]: -1.43 | interaction score [5]: -1.45 | interaction score [6]: -1.23 | interaction score [7]: -1.78 | interaction score [8]: -1.07 | interaction score [9]: -1.09 | interaction score [10]: -1.55 | interaction score [11]: -1.57 | interaction score [12]: -1.4 | interaction score [13]: -0.958 | interaction score [14]: -1.57 | interaction score [15]: -2.1 | interaction score [16]: -1.27 | interaction score [17]: -1.79 | interaction score [18]: -1.47 | interaction score [19]: -1.79 | interaction score [20]: -1.81 | interaction score [21]: -1.68 | interaction score [22]: -0.406 | interaction score [23]: -0.739 | interaction score [24]: -1.38 | interaction score [25]: -1.66 | interaction score [26]: -1.96 | interaction score [27]: -1.15 | interaction score [28]: -1.58 | interaction score [29]: -1.79 | interaction score [30]: -1.57 | interaction score [31]: -1.38
Binder: DENAALKAEIAALKAEIAALKAKNAALEG [4H1615-AA]

interaction score [32]: 2.19
Binder: DEIAALEAEIAALEAEIAALEAKNAALKG [Core_IIIN-es_EEEK]
